Test results as given in the nanobody polyreactivity screen of Harvey et al. (2022).

Test: yeast display, Sf9 membrane polyspecificity reagent, FACS + sequencing; frameworks hold sequencing errors
Summary of the method: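 Polyreactivity labels are assigned by the sorting gate from which each nanobody was recovered. The gates were low and high (top ~1%), set on anti-HA fluorescence for expression and streptavidin fluorescence for reagent binding. Before sorting, galactose-induced (36–48 hours) yeast display cells were stained for 1 hour at 4 °C with 10% biotinylated, detergent-solubilized Sf9 membrane reagent.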

Sequence	polyreactivity (PSR sort gate)
QDQLVESGGGLVQAGGSLRLSCAASGGIIVSYAMGWYRQAPGKEMQLVAAITSGGGTSYSDSVKGRFTISRDNAKNTVYLQMNSLKPEDTAVYYCNADGYLAERFVIRLDEYRHYDYWGQGTQVTVSS	low polyreactivity
QDQLVESGGGLVQAGGSLRLSCAASGIIFDDNTLGWYRQAPGKERELVAAISSSGGSTYYADSVKGRFSISRDNAKNTVYLQMNSLKPEDTAVYYCAAAVYYTYPYIVYRNYPEFDYWGQGTQVTVSS	low polyreactivity
QDQLVESGGGLVQAGGSLRLSCAASGIIFSIYAMGWYRQAPGKERELVAVISRSSGSTYYADSVKGRFTISRDNAKNSVYLQMNSLKPEDTAVYYCAARKNRAYGYWGQGTQVTVSS	high polyreactivity
QDQLVESGGGLVQAGGSLRLSCAASGIISYKNVMGWYRQAPGKERELDAAITSGGSTNYADSVKGRFTISRDNAKNTVYLQMNSLKPEDTAVYYCAARYYGSYGKQPRARYGYWGQGTQVTVSS	high polyreactivity
QDQLVESGGGLVQAGGSLRLSCAASGITFAGNAMGWYRQAPGKERELVAAISGSGGSTSYADSVKGRFTISRDNAKNTVYLQMNSLKPEDTAVYYCAAASRLYNWHALFGSWGQGTQVTVSS	low polyreactivity
QDQLVESGGGLVQAGGSLRLSCAASGITFFYYAMGWYRQAPGKERELVAAINWSGRTYYADSVKGRFTISRDNAKNTVYLQINSLKPEDTAVYYCAAVTYGPGVSVMDYWGQGTQVTVSS	low polyreactivity
QDQLVESGGGLVQAGGSLRLSCAASGITFNAYVMGWYRQAPGKERELVAAISVSDDYTYYADSVKGRFTISRDNAKNTVYLQINSLKPEDTAVYYCAAEWWDVIAPYDYWGQGTQVTVSS	low polyreactivity
QDQLVESGGGLVQAGGSLRLSCAASGITFWYYAMGWYRQAPGKERELVAAISQSGGSTFYADSVKGRFTISRDNAKNTVYLQMNRLKPEVTAVYYCATGFFRYLAKFKTYRYDYWGQGTQVTVSS	high polyreactivity
QDQLVESGGGLVQAGGSLRLSCAASGITIWRYAMGWYRQAPGKERELVAAISWSGSRTYYADSVKGRFTISRDNAKNTVYLQMNSLKPEDTAVYYCAAAFDLWITITGFDYWGQGTQVTVSS	low polyreactivity
QDQLVESGGGLVQAGGSLRLSCAASGLIFARYAMGWYIQAPGKERELVAVISGRGGGTYYADSVKGRFTISRDNAKNTVYLQMNSLKPEDTAVYYCNKYGYKGGVGYDYWGQGTQVTVSS	high polyreactivity
QDQLVESGGGLVQAGGSLRLSCAASGLNFRFYAMGWYRTATGKERELVAAISSRGGSTYYAHSVKGRFTISRDNSKNTFYLQMISLKPEDTWVYYCAADYGDEYEYCGQGTQVTVSS	high polyreactivity
QDQLVESGGGLVQAGGSLRLSCAASGLTFDWYTMGWYRQAPGKERELVATINSGGSTDYADSVKGRFTISRDNAKNTVYLQMNSLKPEDTAVYYCNAEYGYSGVGDDYWGQGTQVTVSS	low polyreactivity
QDQLVESGGGLVQAGGSLRLSCAASGLTFKYYTMGWYRQAAGKERELVAYISRTGRTSYADSVKGRFTISRDNAKNTVYLQMNSLNPEDTGVYYCNADFYVSGYSLFDSIYDYWGQGTQVTVSS	high polyreactivity
QDQLVESGGGLVQAGGSLRLSCAASGLTFQSYAMGWYRQAPGKERELVATISNGSSTYYADSVKGRFTISRDNAKNTVYLQMNSLKPEDTAVYYFAKDYYYSRNPLYGLDYWGQGTQVTVSS	low polyreactivity
QDQLVESGGGLVQAGGSLRLSCAASGLTFQYNTMGWYRQAPGKERELVARINWGGDSTYYADSVKGRFTISRDNAKNTVYLQLYSLKPEVTAVYYCAAPGYSGRYGYYTYYLYVYWGQGTQVTVSS	low polyreactivity
QDQLVESGGGLVQAGGSLRLSCAASGLTYRLNAMGWYRQAPGKEREFVAAISAIGDRTYYADSVKGRFTISRDNAKNTVYLQMNSLKPEDTSVYYCNVTPRSAQVRIGNYWGQGTQVTVSS	high polyreactivity
QDQLVESGGGLVQAGGSLRLSCAASGNNYWTNAMGWYRQAPGKERELVAAISWSGDSTYYADSVKGRFTISRDNAKNTVYLQLNSLKPEDTAVYYCAVLDVYRYRMDYWGQGTQVTVSS	low polyreactivity
QDQLVESGGGLVQAGGSLRLSCAASGNTFTVNAMGWYRQAPGKERELVATINSTGGSTYYADSVKGRFTISRDNAKNTVYLQMNSLKPEDPAVYYAGSSNSFAFGGYDYWGQGTQVTVSS	low polyreactivity
QDQLVESGGGLVQAGGSLRLSCAASGPIFYSNAMGWYRQAPGKERELVAAISSGDGITYYADSVKGRFTISRDNAKNTVYLQMNSLKPEDTAVYYCAADGYYDYPYSGDYWGQGTQVTVSS	high polyreactivity
QDQLVESGGGLVQAGGSLRLSCAASGRIFAGYAMGWYRQAPGKERELVASIRSSGSTYYADSVKGRFTISRDNAKNTVYLQMNSLKPEDTAVYYCAARSGYFRSRFDYWGQCTQVTVSS	high polyreactivity
QDQLVESGGGLVQAGGSLRLSCAASGRIFFTNAMGWYRQAPGKERELVASIDDTGSTNYADSVKGRFTISRDNAKNTVYLQMNSLKPEDTATSTQGDYWGQGTQVTVSS	low polyreactivity
QDQLVESGGGLVQAGGSLRLSCAASGRIFKSYAMGWYRQAPGKERELVAAIGSRTYYADSVKGRFTISRDNAKNTVYLQMNSLKPEDTAVYYCAVEVWGNSKRYYYWGQGTQVTVSS	high polyreactivity

Sequence	polyreactivity (PSR sort gate)
QDQLVESGGGLVQAGGSLRLSCAASGRIFPYYAMGWYRQAPGTERELVAAINSGGSTYYADSVKGRFPISRDNAKNTVYLQMNSLKPEDTAVNYCNADVLYEDGFFWDDYWGQGTQVTVSS	low polyreactivity
QDQLVESGGGLVQAGGSLRLSCAASGRIFRYYTRGWYRQAPGKERELVAAIRWSGSTTYYADSVKGRFTISRDYAKNTVYLLMNSLKPEDTAVYYCDARWSYPRWEFDYWGQGTQVTVSS	high polyreactivity
QDQLVESGGGLVQAGGSLRLSCAASGRIFTGNAMGWYRQAHGKERELVAAISASGSSTYYADSVKGRFTISRDNAKNTVYLQMNSLKPEDTAVYYCAADGWYGYYYWGQGTLVTVSS	high polyreactivity
QDQLVESGGGLVQAGGSLRLSCAASGRIFTGNVMGWYRQAPGKERELVAAITYRGGSTYYADSVKGRFTISRDNAKNTVFLQMNSLKPEDTAVYYCNTGWDPYGYDYWGQGTQVTVSS	low polyreactivity
QDQLVESGGGLVQAGGSLRLSCAASGRIFVYYVMGLYRQAPGKERELVAAITYSGGSTYYADSVKGRFTISRDNAKNTVYLQMNSLKPEDTAVYYCNNVDAFGIVRLYYWGQGTQVTVSS	low polyreactivity
QDQLVESGGGLVQAGGSLRLSCAASGRIFYPYVMGWYRQAPGKERELVAAISDSTGSTYYADSVKGRFTISRDNAKNTVYLQMNSLKPEDTAVYYWGQGTQVTVSS	low polyreactivity
QDQLVESGGGLVQAGGSLRLSCAASGRIFYTNGMGWYRQAPGKERELVAAITYSGGNTFYADSVKGRFTISRDNAKNTVYLQMNSLKPEDTAVYYCAATFTYLGYWYDYWGQGTQVTVSS	low polyreactivity
QDQLVESGGGLVQAGGSLRLSCAASGRIIRQYAMGWYRQAPGKERELVAVISAGGARTYYADSVKGRFTISRDNAKNTVYLQMNSLKPEDTAVYYCAVSYPPGAYRRHFRYGYWGQGTQVTVSS	high polyreactivity
QDQLVESGGGLVQAGGSLRLSCAASGRILAYYAMGWSRQAPGKERELVAAISRAGSTNYADSVKGRFTISRDNAKNTVYLQMNSLKPEDTAVYYCAARPYRRGYNYWGQGTQVTVSS	high polyreactivity
QDQLVESGGGLVQAGGSLRLSCAASGRILLDNAMGWYRQAPGKERELVAAISSGGRTYYADSVKGRFTISRDNAKNTVYLQLNSLKPEDTAVYYCAVSGGFYWGQGTQVTVSS	high polyreactivity
QDQLVESGGGLVQAGGSLRLSCAASGRILTKYAMGWYRQAPGKERELVAAISDSGTGTYYADSVKGRFTISRDNAKNTVYLQMNSLKPEDTAVYYCNAQTRRTRTYHGHKYGYWGQGTQVTVSS	high polyreactivity
QDQLVESGGGLVQAGGSLRLSCAASGRISPRYAMGWYRQAPGKERELVAAIDTSDGTTYFADSVKGRFTISRDNAKNTVYLQMNSLKPEDTAVYYCAAEGQLFDLYDYWGQGTQGTVSS	low polyreactivity
QDQLVESGGGLVQAGGSLRLSCAASGRNIGGYAMGWNRLAPGKEWELVAAISRSGGSTYYADSVKGRFTISRDNAKNTVYLQMNSLKPEDTAVYYCAAETVSSFYTLWTGKYDYWGQGTQVTVSS	high polyreactivity
QDQLVESGGGLVQAGGSLRLSCAASGRTFAYNAMGWYRQAPGKERELVADITSGGSTYYADSVKGRFTIARDNAKNKVYLQMNSLKPEDTAVYYCAAYTQFWYWDYNYWGQGTQVTVSS	high polyreactivity
QDQLVESGGGLVQAGGSLRLSCAASGRTFHKYAMGWSRQAPGKEMELVAAITGSGVRTYYADSVKGRFTISRDNAKNTVYLQMNSLKPEDTAVYYGNADSYNRNGDYWGQGTQVTVSS	high polyreactivity
QDQLVESGGGLVQAGGSLRLSCAASGRTFNGYAMGWYRQAPGKDRELVARITYRGGGTYYADSVKGRFTISRDNAKNTVYLQMNILKTEDTAVYYCNARGVQYRYYYWGQGTQVTVSS	high polyreactivity
QDQLVESGGGLVQAGGSLRLSCAASGRTFRRYALGWYRQAPGKETELVAVISGGGTYYADSVKGRFTISRDNAKNTVYLQMNSLKPEDTAVYYCAARYRQTRSPSYDYWGQGTQVTVSS	high polyreactivity
QDQLVESGGGLVQAGGSLRLSCAASGRTFRRYTKGWYRQAPGKERELVAAISRGGSTNYADSVKGRFTISRDNAMNTFYLQMNSLKPEDTAVYYCNADYWYDWNSYDYWGQGTQVTVSS	high polyreactivity
QDQLVESGGGLVQAGGSLRLSCAASGRTFTRYTMGRYRPAPVKERELVAAISSGGSTTYADSVKGRFTISRDNAKNTVYLQMNSLKPEDTAVYYCAAGLVYRGYRRDYWGQGTQVTVSS	low polyreactivity
QDQLVESGGGLVQAGGSLRLSCAASGRTFTYYTMGWYRQAPGKERELVAAITWSGGRTYYADSVKGRFTISRDYAKNTVYLQMNSLKPEDTAVYYCAKPPQGTYDYWGQGTQVNVSS	low polyreactivity
QDQLVESGGGLVQAGGSLRLSCAASGRTFVSYAMGWYRQAPGKERELVAGISWSGDSTYYADSEKGRFTISRDNAKNTVYLQMNSLKPEDTAVYYCAAVQRTDRSAHYSWGQGTQVTLSS	low polyreactivity
